This is an account of results in publication PMC3676455.

Substitutions are numbered along the chain they refer to.

Common to all, as to assay: fluorescence anisotropy
For one data set, the target named is T1, [2Fe-2S]-IscR-E43A (Escherichia coli, UniProt P0AGK8 1-162, E43A).
T1 sequence: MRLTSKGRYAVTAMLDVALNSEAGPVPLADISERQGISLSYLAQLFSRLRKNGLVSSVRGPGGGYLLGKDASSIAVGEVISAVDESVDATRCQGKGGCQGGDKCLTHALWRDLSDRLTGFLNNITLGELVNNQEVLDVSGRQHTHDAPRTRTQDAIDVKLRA

For the next data set, the target named is T2, [2Fe-2S]-IscR-R59A (Escherichia coli, UniProt P0AGK8 1-162, R59A).
T2 sequence: T1 sequence with A43E, R59A

Another data set has as its target T3, [2Fe-2S]-IscR wild-type (Escherichia coli, UniProt P0AGK8 1-162).
T3 sequence: T1 sequence with A43E

A further data set concerns the target T4, [2Fe-2S]-IscR-S40A (Escherichia coli, UniProt P0AGK8 1-162, S40A).
T4 sequence: T1 sequence with S40A, A43E

B1: hya 30-mer (type 2) (dsDNA)
DNA 1: ATAAATCCACACAGTTTGTATTGTTTTGTG
DNA 2: CACAAAACAATACAAACTGTGTGGATTTAT
As to B1, in data set [2Fe-2S]-IscR-E43A, the binding result is recorded as “binds”.

B2: iscRB 30-mer (type 1) (dsDNA)
DNA 1: AAATAGTTGACCATTTTACTCGGGAATGTC
DNA 2: GACATTCCCGAGTAAAATGGTCAACTATTT
With B2, the Kd in data set [2Fe-2S]-IscR-E43A worked out at 21 ± 1 nM; in data set [2Fe-2S]-IscR wild-type, 24 ± 1 nM; in data set [2Fe-2S]-IscR-S40A, 94 ± 3 nM. Also, the binding result in data set [2Fe-2S]-IscR-R59A is listed as “no binding”.

B3: iscRBcc (symmetrical CC) (dsDNA)
DNA 1: B2 DNA 1 with T7C, T8C
DNA 2: B2 DNA 2 with A23G, A24G
On to B3, for which the binding result in data set [2Fe-2S]-IscR wild-type is recorded as “binds”.

For orientation: Kd means the constant that tells how readily two partners part at equilibrium.
